Where a chain is given by its changes, count along the chain named.
B1: HPrM, HPr from T. aotearoense SCUT27 with Ser46 mutated to Ala, C-terminal His-tag (natural protein)
chain: MTEKTVEIKNKTGLHARPAALFVQAASKFSSQIWVEKENKKVNAKAIMGIMSLGVAQGNTVKLIADGSDEQEAIKTLVDLIDSKFGEE
B2: seryl-phosphorylated HPr (HPrSerP) from T. aotearoense SCUT27 with a C-terminal His-tag (natural protein, Thermoanaerobacterium aotearoense SCUT27, UniProt A0A0S1LJA4 1-88, looked up)
chain: B1 chain with A46S
modifications: phosphoserine at 46
notes: HPr, histidine-containing protein, Thermoanaerobacterium aotearoense SCUT27; ORF of 88 amino acids (ptsH gene, GenBank KR818834); full-length gene cloned into pET30a (NdeI/HindIII); phosphorylated at Ser46; Same chain as m3, phosphorylated at Ser46 by recombinant HPrK/P; also called HPrK/P treated HPr; source: E. coli BL21(DE3), purified (HiTrap Chelating HP, desalting column), phosphorylated in …

Assays:
[1] = molecular target: catabolite control protein A (CcpA) from T. aotearoense SCUT27 with a C-terminal His-tag (Thermoanaerobacterium aotearoense SCUT27) (UniProt T1SCF9); test: SPR; SPRi (Plexera V3), 25°C; CcpA printed as spots on gold-coated sensor slides by amine coupling; HPr, HPrSerP or HPrM flowed as analytes at 2 μL/s, association and dissociation 300 s each; PBST pH 7.2 running buffer; BSA as reference; Langmuir binding model
[2] = molecular target: T1, HPrK/P (HPr kinase/phosphatase) (Thermoanaerobacterium aotearoense, UniProt A0A0S1LJ76); test: HPr phosphorylation, Phos-tag SDS-PAGE; assay type: biochemical; details: 5 mM ATP, 50 uM HPr, 5 mM MgCl2, 10 mM NaCl, 100 mM Tris-Cl pH 7.0, 37 C, 10 min
T1 construct: protein substrate recombinant HPr (KR818834) of the same strain
T1 sequence (A0A0S1LJ76 1-304): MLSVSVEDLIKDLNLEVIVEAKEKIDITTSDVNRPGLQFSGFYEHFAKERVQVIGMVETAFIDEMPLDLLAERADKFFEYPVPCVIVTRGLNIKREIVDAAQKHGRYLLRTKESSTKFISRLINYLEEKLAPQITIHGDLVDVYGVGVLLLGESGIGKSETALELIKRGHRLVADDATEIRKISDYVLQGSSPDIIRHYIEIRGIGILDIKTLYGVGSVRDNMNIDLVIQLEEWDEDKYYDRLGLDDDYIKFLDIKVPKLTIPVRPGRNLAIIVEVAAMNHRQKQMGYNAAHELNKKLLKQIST

[3] = molecular target: T2, catabolite control protein A (CcpA) from T. aotearoense SCUT27 with a C-terminal His-tag (Thermoanaerobacterium aotearoense SCUT27, UniProt T1SCF9 1-336); test: SPR; SPRi (Plexera V3), 25°C; CcpA printed as spots on gold-coated sensor slides by amine coupling; HPr, HPrSerP or HPrM flowed as analytes at 2 μL/s, association and dissociation 300 s each; PBST pH 7.2 running buffer; BSA as reference; Langmuir binding model; details: both partners purified
T2 construct: CcpA, catabolite control protein A, Thermoanaerobacterium aotearoense SCUT27; ORF of 336 amino acids (ccpA gene, 1011 bp, GenBank KC899078); full-length gene cloned into pET30a (NdeI/XhoI); The genomic primer begins with GTG, the expression primer Tc-F with ATG; Cloning through XhoI of pET30a probably adds LE before the His-tag (surmised); also called pET-CcpA product; source: E. coli BL21(DE3), …
T2 sequence (T1SCF9 entry or part of it): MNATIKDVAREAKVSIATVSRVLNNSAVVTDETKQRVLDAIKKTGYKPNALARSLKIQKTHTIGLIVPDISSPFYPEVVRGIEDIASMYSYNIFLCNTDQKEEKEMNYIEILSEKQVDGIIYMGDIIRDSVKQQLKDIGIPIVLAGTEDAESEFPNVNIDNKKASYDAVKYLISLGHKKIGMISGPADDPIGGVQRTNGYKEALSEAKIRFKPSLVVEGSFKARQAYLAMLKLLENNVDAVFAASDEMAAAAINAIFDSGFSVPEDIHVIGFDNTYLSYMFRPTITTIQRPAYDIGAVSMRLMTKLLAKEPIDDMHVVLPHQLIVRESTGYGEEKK

catabolite control protein A (CcpA) from T. aotearoense SCUT27 with a C-terminal His-tag (Thermoanaerobacterium aotearoense SCUT27), sequence (T1SCF9 entry or part of it): as above

| Molecule | Kd [1] [µM] | koff [1] [s⁻¹] | kon [1] [M⁻¹ s⁻¹] | HPr phosphorylation, Phos-tag SDS-PAGE [2] | Kd [3] [µM] | koff [3] [s⁻¹] | kon [3] [M⁻¹ s⁻¹] |
| --- | --- | --- | --- | --- | --- | --- | --- |
| Histidine-containing Protein (HPr) from T. aotearoense SCUT27 with a C-terminal His-tag, not phosphorylated (natural protein) | 2.29 | 0.000922 | 403 | – | – | – | – |
| Nc1ncnc2c1ncn2[C@@H]1O[C@H](COP(=O)(O)OP(=O)(O)OP(=O)(O)O)[C@@H](O)[C@H]1O [ATP] | – | – | – | HPrK/P lost its kinase activity when there was no ATP in the reaction mixture | – | – | – |
| B1 | – | – | – | – | 6.01 | 0.000576 | 95.8 |
| B2 | – | – | – | – | 0.00222 | 7.78e-07 | 350 |
